This note sets out measurements from article PMC6406557, “Lysozyme Aptamer-Functionalized Magnetic Nanoparticles for the Purification of Lysozyme from Chicken Egg White”.

For one series, the target named is lysozyme (chicken (Gallus gallus)?, UniProt P00698 19-147). The series can be described thus: pull-down on aptamer-functionalized magnetic nanoparticles (adsorption, A280); capacity 460 +/- 3.4 mg/g at pH 9.0, 37 C, 0 M NaCl; bare Fe3O4 218.39 and NH2-Fe3O4 211.35 mg/g, so part is non-aptamer adsorption; Adsorption optimum: 4.0 mg/mL lysozyme, 60 min, pH 9.0, 37 C, 0 M NaCl; egg white: mixed 1:1 with 20 mM PBS pH 7.2-8.0, 10 mg NPs per mL, 37 C, 60 min. The following applies: protein: commercial.
Sequence of lysozyme (P00698 19-147): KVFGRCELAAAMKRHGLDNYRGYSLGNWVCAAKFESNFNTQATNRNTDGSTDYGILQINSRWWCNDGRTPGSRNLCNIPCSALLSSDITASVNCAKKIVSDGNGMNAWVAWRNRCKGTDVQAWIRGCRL

Another series deals with lysozyme from egg white (chicken, UniProt P00698 19-147). The series can be described thus: pull-down from egg white on aptamer-functionalized magnetic nanoparticles, SDS-PAGE; 113 +/- 4.2 mg/g from egg white; Adsorption optimum: 4.0 mg/mL lysozyme, 60 min, pH 9.0, 37 C, 0 M NaCl; egg white: mixed 1:1 with 20 mM PBS pH 7.2-8.0, 10 mg NPs per mL, 37 C, 60 min. The settings on record: protein: native.
Sequence of lysozyme from egg white (P00698 19-147): as above

On to TTTTTTATCAGGGCTAAAGAGTGC (ssDNA, 5'-aldehyde, coupled as imine to NH2-Fe3O4 nanoparticles) [lysozyme aptamer], for which the binding result with lysozyme and in the series with lysozyme from egg white was “binds” in each case.
